Reference: patent US20180155451A1 (published 2018)

T1: FcγRIIb (human, UniProt P31994 43-217)
T1 construct: extracellular domain; also called FcgRIIb; 2b; not shown: His tag at the C terminus
T1 sequence (looked up): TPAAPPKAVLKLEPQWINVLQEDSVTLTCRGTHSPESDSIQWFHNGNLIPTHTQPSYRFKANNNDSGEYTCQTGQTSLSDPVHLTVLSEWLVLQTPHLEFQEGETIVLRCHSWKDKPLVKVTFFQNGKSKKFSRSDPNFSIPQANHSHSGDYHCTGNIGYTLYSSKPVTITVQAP


What was measured:
[1] = biological target: T2, FcγRIa (human, UniProt P12314 16-292); assay: SPR (Biacore); He/Con_1a (FcγRIa) divided by He/Con_2b (FcγRIIb)
T2 construct: extracellular domain; also called FcgRI; 1a; not shown: His tag at the C terminus
T2 sequence (P12314 16-292): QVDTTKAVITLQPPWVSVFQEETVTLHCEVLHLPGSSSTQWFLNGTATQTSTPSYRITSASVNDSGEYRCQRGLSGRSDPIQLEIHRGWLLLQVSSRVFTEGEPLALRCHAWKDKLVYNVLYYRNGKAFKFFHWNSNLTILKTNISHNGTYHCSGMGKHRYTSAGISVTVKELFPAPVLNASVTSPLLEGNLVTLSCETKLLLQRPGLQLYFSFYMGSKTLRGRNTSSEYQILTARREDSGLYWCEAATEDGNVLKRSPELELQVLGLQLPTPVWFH

[2] = biological target: T1, FcγRIIb; assay: SPR (Biacore), antibody captured, FcγR as analyte; binding as % of GpH7-A5/GpH7-B3/GpL16-k0
[3] = biological target: T2, FcγRIa; assay: as above

| Ia/IIb He_1a/2b [1] [ratio] | He/Con_2b [2] | He/Con_1a [3] | Binder |
| --- | --- | --- | --- |
| 0.6 | 172 % of control | 103 % of control | GpH7-A5/GpH7-B3 variant A327_09D/GpL16-k0 (antibody, human IgG1, kappa, heterodimerized IgG1; alteration in the GpH7-B3 H chain only; also called He Ab) heavy 1: not shown heavy 2: not shown light: DIVMTQSPLSLPVTPGEPASISCQASESLVHSNRNTYLHWYLQKPGQSPQLLIYKVSNRFSGVPDRFSGSGSGTDFTLKISRVEAEDVGVYYCSQNTHVPPTFGQGTKVEIERTVAAPSVFIFPPSDEQLKSGTASVVCLLNNFYPREAKVQWKVDNALQSGNSQESVTEQDSKDSTYSLSSTLTLSKADYEKHKVYACEVTHQGLSSPVTKSFNRGEC |
| 0.74 | 140 % of control | 103 % of control | GpH7-A5/GpH7-B3 variant A327_10E/GpL16-k0 (antibody, human IgG1, kappa, heterodimerized IgG1; alteration in the GpH7-B3 H chain only; also called He Ab) heavy 1: not shown heavy 2: not shown light: DIVMTQSPLSLPVTPGEPASISCQASESLVHSNRNTYLHWYLQKPGQSPQLLIYKVSNRFSGVPDRFSGSGSGTDFTLKISRVEAEDVGVYYCSQNTHVPPTFGQGTKVEIERTVAAPSVFIFPPSDEQLKSGTASVVCLLNNFYPREAKVQWKVDNALQSGNSQESVTEQDSKDSTYSLSSTLTLSKADYEKHKVYACEVTHQGLSSPVTKSFNRGEC |
| 0.74 | 137 % of control | 101 % of control | GpH7-A5/GpH7-B3 variant A330_05P/GpL16-k0 (antibody, human IgG1, kappa, heterodimerized IgG1; alteration in the GpH7-B3 H chain only; also called He Ab) heavy 1: not shown heavy 2: not shown light: DIVMTQSPLSLPVTPGEPASISCQASESLVHSNRNTYLHWYLQKPGQSPQLLIYKVSNRFSGVPDRFSGSGSGTDFTLKISRVEAEDVGVYYCSQNTHVPPTFGQGTKVEIERTVAAPSVFIFPPSDEQLKSGTASVVCLLNNFYPREAKVQWKVDNALQSGNSQESVTEQDSKDSTYSLSSTLTLSKADYEKHKVYACEVTHQGLSSPVTKSFNRGEC |
| 0.64 | 147 % of control | 93.4 % of control | GpH7-A5/GpH7-B3 variant I332_09D/GpL16-k0 (antibody, human IgG1, kappa, heterodimerized IgG1; alteration in the GpH7-B3 H chain only; also called He Ab) heavy 1: not shown heavy 2: not shown light: DIVMTQSPLSLPVTPGEPASISCQASESLVHSNRNTYLHWYLQKPGQSPQLLIYKVSNRFSGVPDRFSGSGSGTDFTLKISRVEAEDVGVYYCSQNTHVPPTFGQGTKVEIERTVAAPSVFIFPPSDEQLKSGTASVVCLLNNFYPREAKVQWKVDNALQSGNSQESVTEQDSKDSTYSLSSTLTLSKADYEKHKVYACEVTHQGLSSPVTKSFNRGEC |
| 0.68 | 142 % of control | 96.3 % of control | GpH7-A5/GpH7-B3 variant I332_10E/GpL16-k0 (antibody, human IgG1, kappa, heterodimerized IgG1; alteration in the GpH7-B3 H chain only; also called He Ab) heavy 1: not shown heavy 2: not shown light: DIVMTQSPLSLPVTPGEPASISCQASESLVHSNRNTYLHWYLQKPGQSPQLLIYKVSNRFSGVPDRFSGSGSGTDFTLKISRVEAEDVGVYYCSQNTHVPPTFGQGTKVEIERTVAAPSVFIFPPSDEQLKSGTASVVCLLNNFYPREAKVQWKVDNALQSGNSQESVTEQDSKDSTYSLSSTLTLSKADYEKHKVYACEVTHQGLSSPVTKSFNRGEC |
| 0.51 | 199 % of control | 102 % of control | GpH7-A5/GpH7-B3 variant L328_09D/GpL16-k0 (antibody, human IgG1, kappa, heterodimerized IgG1; alteration in the GpH7-B3 H chain only; also called He Ab) heavy 1: not shown heavy 2: not shown light: DIVMTQSPLSLPVTPGEPASISCQASESLVHSNRNTYLHWYLQKPGQSPQLLIYKVSNRFSGVPDRFSGSGSGTDFTLKISRVEAEDVGVYYCSQNTHVPPTFGQGTKVEIERTVAAPSVFIFPPSDEQLKSGTASVVCLLNNFYPREAKVQWKVDNALQSGNSQESVTEQDSKDSTYSLSSTLTLSKADYEKHKVYACEVTHQGLSSPVTKSFNRGEC |
| 0.59 | 172 % of control | 101 % of control | GpH7-A5/GpH7-B3 variant L328_10E/GpL16-k0 (antibody, human IgG1, kappa, heterodimerized IgG1; alteration in the GpH7-B3 H chain only; also called He Ab) heavy 1: not shown heavy 2: not shown light: DIVMTQSPLSLPVTPGEPASISCQASESLVHSNRNTYLHWYLQKPGQSPQLLIYKVSNRFSGVPDRFSGSGSGTDFTLKISRVEAEDVGVYYCSQNTHVPPTFGQGTKVEIERTVAAPSVFIFPPSDEQLKSGTASVVCLLNNFYPREAKVQWKVDNALQSGNSQESVTEQDSKDSTYSLSSTLTLSKADYEKHKVYACEVTHQGLSSPVTKSFNRGEC |
| 0.71 | 141 % of control | 100 % of control | GpH7-A5/GpH7-B3 variant L328_14T/GpL16-k0 (antibody, human IgG1, kappa, heterodimerized IgG1; alteration in the GpH7-B3 H chain only; also called He Ab) heavy 1: not shown heavy 2: not shown light: DIVMTQSPLSLPVTPGEPASISCQASESLVHSNRNTYLHWYLQKPGQSPQLLIYKVSNRFSGVPDRFSGSGSGTDFTLKISRVEAEDVGVYYCSQNTHVPPTFGQGTKVEIERTVAAPSVFIFPPSDEQLKSGTASVVCLLNNFYPREAKVQWKVDNALQSGNSQESVTEQDSKDSTYSLSSTLTLSKADYEKHKVYACEVTHQGLSSPVTKSFNRGEC |
